Results from paper PMC2648068 (Journal of immunology (Baltimore, Md. : 1950), 2009).

Key:
Assay in all cases: ELISA
recombinant mouse TLR1 = biological target: T1, recombinant mouse TLR1 (mouse, UniProt Q9EPQ1 26-582)
T1 sequence (looked up): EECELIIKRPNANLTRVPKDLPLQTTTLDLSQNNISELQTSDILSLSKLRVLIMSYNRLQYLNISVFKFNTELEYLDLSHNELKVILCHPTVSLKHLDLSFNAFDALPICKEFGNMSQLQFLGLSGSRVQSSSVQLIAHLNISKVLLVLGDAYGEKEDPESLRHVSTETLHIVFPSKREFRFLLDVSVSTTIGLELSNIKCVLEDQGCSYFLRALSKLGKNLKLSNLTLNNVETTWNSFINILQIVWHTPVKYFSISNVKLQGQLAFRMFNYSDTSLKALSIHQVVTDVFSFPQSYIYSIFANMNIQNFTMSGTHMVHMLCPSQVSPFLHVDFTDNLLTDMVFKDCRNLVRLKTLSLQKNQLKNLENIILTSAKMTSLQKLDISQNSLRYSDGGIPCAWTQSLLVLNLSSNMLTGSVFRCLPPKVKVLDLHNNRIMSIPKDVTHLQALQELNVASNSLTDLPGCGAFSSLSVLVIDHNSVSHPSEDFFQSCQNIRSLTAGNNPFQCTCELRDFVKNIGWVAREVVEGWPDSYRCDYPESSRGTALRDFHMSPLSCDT

recombinant human TLR1 = biological target: T2, recombinant human TLR1 (human, UniProt Q15399 25-580)
T2 sequence (looked up): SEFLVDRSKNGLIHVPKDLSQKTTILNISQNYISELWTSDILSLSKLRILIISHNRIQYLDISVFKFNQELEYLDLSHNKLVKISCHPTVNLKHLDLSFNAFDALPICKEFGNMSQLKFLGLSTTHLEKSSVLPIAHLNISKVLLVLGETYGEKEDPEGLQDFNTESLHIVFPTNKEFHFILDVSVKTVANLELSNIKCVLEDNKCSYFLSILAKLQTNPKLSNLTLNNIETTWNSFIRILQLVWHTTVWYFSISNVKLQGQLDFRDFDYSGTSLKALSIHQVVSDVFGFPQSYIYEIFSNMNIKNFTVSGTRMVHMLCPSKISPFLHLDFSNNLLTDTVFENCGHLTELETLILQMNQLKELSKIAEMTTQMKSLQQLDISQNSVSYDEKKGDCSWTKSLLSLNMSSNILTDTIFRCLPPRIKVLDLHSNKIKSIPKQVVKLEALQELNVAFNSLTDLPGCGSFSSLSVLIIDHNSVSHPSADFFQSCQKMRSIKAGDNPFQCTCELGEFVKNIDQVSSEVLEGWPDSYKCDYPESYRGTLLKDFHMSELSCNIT

recombinant mouse TLR2 = biological target: T3, recombinant mouse TLR2 (mouse, UniProt Q9QUN7 25-587)
T3 sequence (looked up): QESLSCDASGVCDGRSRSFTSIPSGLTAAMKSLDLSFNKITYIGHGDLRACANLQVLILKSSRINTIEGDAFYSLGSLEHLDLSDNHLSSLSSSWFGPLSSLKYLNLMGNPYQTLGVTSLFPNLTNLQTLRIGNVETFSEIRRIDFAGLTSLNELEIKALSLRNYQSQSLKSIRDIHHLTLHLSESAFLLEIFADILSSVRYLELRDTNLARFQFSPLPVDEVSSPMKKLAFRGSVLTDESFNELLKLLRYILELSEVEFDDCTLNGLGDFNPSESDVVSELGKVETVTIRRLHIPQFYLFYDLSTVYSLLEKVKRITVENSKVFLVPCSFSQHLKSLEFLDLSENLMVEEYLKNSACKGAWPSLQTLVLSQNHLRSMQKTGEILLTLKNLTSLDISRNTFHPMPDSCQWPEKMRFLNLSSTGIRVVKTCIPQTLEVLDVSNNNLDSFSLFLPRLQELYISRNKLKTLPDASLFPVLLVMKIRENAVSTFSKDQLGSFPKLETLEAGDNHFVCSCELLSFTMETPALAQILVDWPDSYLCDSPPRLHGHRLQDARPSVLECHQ

recombinant human TLR2 = recombinant human TLR2 (human, UniProt O60603 21-588)

Measured: binding result

Sequence of recombinant human TLR2 (O60603 21-588): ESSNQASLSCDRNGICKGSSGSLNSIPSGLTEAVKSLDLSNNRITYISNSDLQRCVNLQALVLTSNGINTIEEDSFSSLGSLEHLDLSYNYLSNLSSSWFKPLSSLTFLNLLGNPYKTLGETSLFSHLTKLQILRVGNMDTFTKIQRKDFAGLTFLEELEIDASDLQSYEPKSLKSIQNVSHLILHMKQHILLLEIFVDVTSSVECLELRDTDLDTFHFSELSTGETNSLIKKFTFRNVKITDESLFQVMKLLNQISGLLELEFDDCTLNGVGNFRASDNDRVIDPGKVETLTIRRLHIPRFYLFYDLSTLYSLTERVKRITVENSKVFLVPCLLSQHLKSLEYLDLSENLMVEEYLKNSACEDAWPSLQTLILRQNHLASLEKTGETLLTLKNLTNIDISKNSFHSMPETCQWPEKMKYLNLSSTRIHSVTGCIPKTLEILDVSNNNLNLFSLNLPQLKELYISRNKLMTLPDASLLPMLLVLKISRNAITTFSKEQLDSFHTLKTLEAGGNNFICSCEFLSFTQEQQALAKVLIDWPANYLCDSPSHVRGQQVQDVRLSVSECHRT

B1: LT-IIb-B5, pentameric B subunit of type IIb E. coli enterotoxin (wild-type) (natural protein)
chain: GASQFFKDNCNRTTASLVEGVELTKYISDINNNTDGMYVVSSTGGVWRISRAKDYPDNVMTAEMRKIAMAAVLSGMRVNMCASPASSPNVIWAIELEAE
binds: recombinant mouse TLR1 | recombinant human TLR1 | recombinant mouse TLR2 | recombinant human TLR2
